These results are taken from article PMC9620234, “Design, Synthesis, and Biochemical and Biological Evaluation of Novel 7-Deazapurine Cyclic Dinucleotide Analogues as STING Receptor Agonists” (Journal of Medicinal Chemistry, 2022).

This data set deals with the molecule itself. The data set can be described thus: crystal structure; wt hSTING (140-379) co-crystallised with CDN 5f, 5k, 5l or 5m; sitting drop vapor diffusion, 18 °C; chains A/B with one ligand molecule.

B1: human wild-type STING truncated to residues 140–379 (domain or fragment, UniProt Q86WV6 140-379, looked up)
chain: APAEISAVCEKGNFNVAHGLAWSYYIGYLRLILPELQARIRTYNQHYNNLLRGAVSQRLYILLPLDCGVPDNLSMADPNIRFLDKLPQQTGDHAGIKDRVYSNSIYELLENGQRAGTCVLEYATPLQTLFAMSQYSQAGFSREDRLEQAKLFCRTLEDILADAPESQNNCRLIAYQEPADDSSFSLSQEVLRHLRQEEKEEVTVGSLKTSAVPSTSTMSQEPELLISGMEKPLPLRTDFS
notes: stimulator of interferon genes (STING), human, wild-type allele, UniProt Q86WV6, residues 140-379; Each crystal also holds one cyclic dinucleotide ligand (5f, 5k, 5l or 5m) in the site between the two chains; also called wt hSTING; stimulator of interferon genes; source: E. coli BL21 (DE3), purified (Ni-NTA, Ulp1 protease digestion, SEC, HiTrap Capto S)
In the case of B1, the binding result was “binds”.
